Test results from patent US20170362301A1 (Janssen / Centocor, published 2017).
Numbering of substitutions follows the chain as printed. In names and notes the source's numbering stands. Several values for one entry are separate records, joined by “and”; a condition that tells them apart may be missing. Identical values can stand only once.

B1: 83v2cy5-mal-PEG4-MMAE (designed binder)
chain: MLPAPKNLVVSEVTEDSARLSWDDPWAFYESFLIQYQESEKVGEAIVLTVPGSERSYDLTGLKPGTEYTVSIYGVHNVYKDTNMRGLPLSAIFTTGGHHHHHHC
modifications: mal-PEG4-MMAE on the cysteine
B2: 83v2cy5-mal-PEG4-VC-MMAF (designed binder)
chain: B1 chain
modifications: mal-PEG4-VC-MMAF on the cysteine
B3: 83v2cy5-mal-PEG4-MMAF (designed binder)
chain: B1 chain
modifications: mal-PEG4-MMAF on the cysteine
B4: 83v2cy5-mal-PEG4-VC-MMAE (designed binder)
chain: B1 chain
modifications: mal-PEG4-VC-MMAE on the cysteine
B5: 83v2cy5-mal-PEG4-VK-MMAF (designed binder)
chain: B1 chain
modifications: mal-PEG4-VK-MMAF on the cysteine
B6: 83v2cy5-mal-PEG4-VK-MMAE (designed binder)
chain: B1 chain
modifications: mal-PEG4-VK-MMAE on the cysteine
B7: P53A1R5-17 (designed binder)
chain: LPAPKNLVVSEVTEDSLRLSWADPHGFYDSFLIQYQESEKVGEAINLTVPGSERSYDLTGLKPGTEYTVSIYGVHNVYKDTNMRGLPLSAEFTT
B8: P54AR4-48 (designed binder)
chain: B7 chain with A22D, H25R, D29E
B9: P54AR4-73 (designed binder)
chain: B7 chain with A22T, D23W, H25Y, G26A, F27D, Y28L
B10: P54AR4-83v2 T13C, NEM conjugate (designed binder)
chain: B7 chain with T13C, L17A, A22D, H25W, G26A, D29E, N46V, E91I
modifications: NEM on Cys 13
notes: His-tagged
B11: P54AR4-83v2 T93C, NEM conjugate (designed binder)
chain: B7 chain with L17A, A22D, H25W, G26A, D29E, N46V, E91I, T93C
modifications: NEM on Cys 93
notes: His-tagged
B12: P54AR4-83v2 V77C, NEM conjugate (designed binder)
chain: B7 chain with L17A, A22D, H25W, G26A, D29E, N46V, V77C, E91I
modifications: NEM on Cys 77
notes: His-tagged
B13: P54AR4-83v2 T81C, NEM conjugate (designed binder)
chain: B7 chain with L17A, A22D, H25W, G26A, D29E, N46V, T81C, E91I
modifications: NEM on Cys 81
notes: His-tagged
B14: P54AR4-17 (designed binder)
chain: B7 chain with A22T, D23Y, P24D, H25R, G26D, F27G
B15: P54AR4-83v2 T68C, NEM conjugate (designed binder)
chain: B7 chain with L17A, A22D, H25W, G26A, D29E, N46V, T68C, E91I
modifications: NEM on Cys 68
notes: His-tagged
B16: P54AR4-83v2 Y28C, NEM conjugate (designed binder)
chain: B7 chain with L17A, A22D, H25W, G26A, Y28C, D29E, N46V, E91I
modifications: NEM on Cys 28
notes: His-tagged
B17: P54AR4-83v2 V9C, NEM conjugate (designed binder)
chain: B7 chain with V9C, L17A, A22D, H25W, G26A, D29E, N46V, E91I
modifications: NEM on Cys 9
notes: His-tagged
B18: P54AR4-83v2 S55C, NEM conjugate (designed binder)
chain: B7 chain with L17A, A22D, H25W, G26A, D29E, N46V, S55C, E91I
modifications: NEM on Cys 55
notes: His-tagged
B19: P54AR4-83v2 Y72C, NEM conjugate (designed binder)
chain: B7 chain with L17A, A22D, H25W, G26A, D29E, N46V, Y72C, E91I
modifications: NEM on Cys 72
notes: His-tagged
B20: P54AR4-83v2 T48C, NEM conjugate (designed binder)
chain: B7 chain with L17A, A22D, H25W, G26A, D29E, N46V, T48C, E91I
modifications: NEM on Cys 48
notes: His-tagged
B21: P54AR4-83v2 S89C, NEM conjugate (designed binder)
chain: B7 chain with L17A, A22D, H25W, G26A, D29E, N46V, S89C, E91I
modifications: NEM on Cys 89
notes: His-tagged
B22: P54AR4-83v2 V12C, NEM conjugate (designed binder)
chain: B7 chain with V12C, L17A, A22D, H25W, G26A, D29E, N46V, E91I
modifications: NEM on Cys 12
notes: His-tagged
B23: P54AR4-83v2 V49C, NEM conjugate (designed binder)
chain: B7 chain with L17A, A22D, H25W, G26A, D29E, N46V, V49C, E91I
modifications: NEM on Cys 49
notes: His-tagged
B24: P54AR4-83v2 V41C, NEM conjugate (designed binder)
chain: B7 chain with L17A, A22D, H25W, G26A, D29E, V41C, N46V, E91I
modifications: NEM on Cys 41
notes: His-tagged
B25: P54AR4-83v2 T59C, NEM conjugate (designed binder)
chain: B7 chain with L17A, A22D, H25W, G26A, D29E, N46V, T59C, E91I
modifications: NEM on Cys 59
notes: His-tagged
B26: P54AR4-83v2 V8C, NEM conjugate (designed binder)
chain: B7 chain with V8C, L17A, A22D, H25W, G26A, D29E, N46V, E91I
modifications: NEM on Cys 8
notes: His-tagged
B27: P54AR4-83v2 W25C, NEM conjugate (designed binder)
chain: B7 chain with L17A, A22D, H25C, G26A, D29E, N46V, E91I
modifications: NEM on Cys 25
notes: His-tagged
B28: P54AR4-83v2 V46C, NEM conjugate (designed binder)
chain: B7 chain with L17A, A22D, H25W, G26A, D29E, N46C, E91I
modifications: NEM on Cys 46
notes: His-tagged
B29: P54AR4-83v2 Y78C, NEM conjugate (designed binder)
chain: B7 chain with L17A, A22D, H25W, G26A, D29E, N46V, Y78C, E91I
modifications: NEM on Cys 78
notes: His-tagged
B30: P54AR4-83v2 V74C, NEM conjugate (designed binder)
chain: B7 chain with L17A, A22D, H25W, G26A, D29E, N46V, V74C, E91I
modifications: NEM on Cys 74
notes: His-tagged
B31: P54AR4-83v2 S52C, NEM conjugate (designed binder)
chain: B7 chain with L17A, A22D, H25W, G26A, D29E, N46V, S52C, E91I
modifications: NEM on Cys 52
notes: His-tagged
B32: P54AR4-83 (designed binder)
chain: B7 chain with A22D, H25W, G26A, D29E
B33: P54AR4-83v2 S70C, NEM conjugate (designed binder)
chain: B7 chain with L17A, A22D, H25W, G26A, D29E, N46V, S70C, E91I
modifications: NEM on Cys 70
notes: His-tagged
B34: P54CR4-31 (designed binder)
chain: LPAPKNLVVSEVTEDSLRLSWTAPDAAFDSFLIQYQESEKVGEAINLTVPGSERSYDLTGLKPGTEYTVSIYGVLGSYVFEHDVMLPLSAEFTT
B35: ECB38 (designed binder)
chain: MLPAPKNLVVSEVTEDSARLSWDDPWAFYESFLIQYQESEKVGEAIVLTVPGSERSYDLTGLKPGTEYTVSIYGVHNVYKDTNMRGLPLSAIFTTAPAPAPAPAPLPAPKNLVVSRVTEDSARLSWTAPDAAFDSFWIRYFEFLGSGEAIVLTVPGSERSYDLTGLKPGTEYVVNIMGVKGGKISPPLSAIFTTAPAPAPAPAPLAEAKVLANRELDKYGVSDYYKNLINNAKTVEGVKALLDEILAALP
B36: ECB147v5-PEG24 (designed binder)
chain: B35 chain with K63C, K167C, G178S, K183S
modifications: PEG24-maleimide on the engineered cysteines
B37: ECB147v3-PEG24 (designed binder)
chain: B35 chain with K63C, A98C, K167C, G178S, K183S, A197C
modifications: PEG24-maleimide on the engineered cysteines
B38: ECB147v6-PEG24 (designed binder)
chain: B35 chain with K63C, G178S, K183S
modifications: PEG24-maleimide on the engineered cysteine
B39: ECB147v7-PEG24 (designed binder)
chain: B35 chain with A98C, G178S, K183S, A197C
modifications: PEG24-maleimide on the engineered cysteines

Legend:
[1] = molecular target: T1, EGFR on cells (A431, NCI-H292, NCI-H322, NCI-H441) (human, UniProt P00533 25-1210); test: cell-based or functional assay
[2] = molecular target: T1, EGFR on cells (A431, NCI-H292, …); test: cell-based or functional assay; remark: listed apart in the source
[3] = molecular target: T2, EGFR (form in the assay not stated) (human, UniProt P00533 25-645, limits assumed); test: ELISA, NEM conjugate 500 nM
[4] = molecular target: T2, EGFR (form in the assay not stated); test: ELISA, NEM conjugate 10 nM
[5] = molecular target: T2, EGFR (form in the assay not stated); test: ELISA, NEM conjugate 100 nM
[6] = molecular target: T1, EGFR on cells (A431, NCI-H292, …); test: cell-based or functional assay; remark: listed apart in the source
[7] = molecular target: c-Met on cells (NCI-H441, NCI-H292, U87-MG) (human, UniProt P08581 25-1390); test: cell-based or functional assay
Chain of c-Met on cells (NCI-H441, NCI-H292, U87-MG) (P08581 other isoform, or with tags, fused parts or gaps limits assumed): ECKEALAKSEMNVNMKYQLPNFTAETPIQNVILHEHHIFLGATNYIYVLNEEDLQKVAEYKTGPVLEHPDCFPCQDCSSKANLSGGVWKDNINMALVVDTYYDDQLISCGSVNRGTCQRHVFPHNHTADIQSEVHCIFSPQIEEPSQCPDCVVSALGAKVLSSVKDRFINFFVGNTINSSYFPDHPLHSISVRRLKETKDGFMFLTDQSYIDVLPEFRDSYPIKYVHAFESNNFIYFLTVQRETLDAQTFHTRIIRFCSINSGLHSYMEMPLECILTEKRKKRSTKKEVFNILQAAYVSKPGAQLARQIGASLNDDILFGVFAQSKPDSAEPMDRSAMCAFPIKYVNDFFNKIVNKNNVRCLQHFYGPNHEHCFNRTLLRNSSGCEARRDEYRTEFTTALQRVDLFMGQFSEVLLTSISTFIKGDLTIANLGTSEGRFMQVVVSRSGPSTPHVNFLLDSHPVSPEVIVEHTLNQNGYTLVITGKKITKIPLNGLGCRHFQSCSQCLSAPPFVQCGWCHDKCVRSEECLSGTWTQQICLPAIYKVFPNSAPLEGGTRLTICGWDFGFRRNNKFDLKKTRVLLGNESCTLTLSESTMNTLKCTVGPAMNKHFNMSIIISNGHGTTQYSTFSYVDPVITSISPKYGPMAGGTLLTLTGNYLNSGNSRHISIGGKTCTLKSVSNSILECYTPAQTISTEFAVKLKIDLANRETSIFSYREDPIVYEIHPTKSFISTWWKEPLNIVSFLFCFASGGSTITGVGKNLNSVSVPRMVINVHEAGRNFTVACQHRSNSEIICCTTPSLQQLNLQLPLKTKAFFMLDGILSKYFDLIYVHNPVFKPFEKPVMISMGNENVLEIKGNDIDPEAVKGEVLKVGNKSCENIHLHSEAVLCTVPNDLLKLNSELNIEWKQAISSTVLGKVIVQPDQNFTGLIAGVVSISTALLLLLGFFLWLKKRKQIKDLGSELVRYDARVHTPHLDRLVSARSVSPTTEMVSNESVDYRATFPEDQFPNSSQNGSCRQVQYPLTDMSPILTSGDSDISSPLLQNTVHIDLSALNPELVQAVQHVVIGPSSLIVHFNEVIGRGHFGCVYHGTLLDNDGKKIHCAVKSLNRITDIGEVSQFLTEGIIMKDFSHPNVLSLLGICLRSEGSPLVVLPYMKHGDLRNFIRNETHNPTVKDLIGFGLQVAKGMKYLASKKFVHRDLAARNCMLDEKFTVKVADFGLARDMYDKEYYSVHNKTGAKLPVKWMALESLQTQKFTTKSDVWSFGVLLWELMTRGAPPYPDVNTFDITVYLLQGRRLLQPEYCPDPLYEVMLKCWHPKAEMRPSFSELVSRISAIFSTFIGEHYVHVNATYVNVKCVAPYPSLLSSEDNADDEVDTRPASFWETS

Binder | binding ratio vs parent P54AR4-83v2 [3] | binding ratio vs parent P54AR4-83v2 [4] | binding ratio vs parent P54AR4-83v2 [5] | further results
B1 | – | – | – | IC50 A431 (nM), cell viability [1]: > 500 nM
B2 | – | – | – | IC50 A431 (nM), cell viability [1]: 1.6 nM; IC50 H1537 (nM), cell viability [1]: 1.19 nM and 1.05 nM
B3 | – | – | – | IC50 A431 (nM), cell viability [1]: > 1000 nM
B4 | – | – | – | IC50 A431 (nM), cell viability [1]: 315 nM
B5 | – | – | – | IC50 A431 (nM), cell viability [1]: 3.9 nM
B6 | – | – | – | IC50 A431 (nM), cell viability [1]: 19.6 nM
B7 | – | – | – | Phospho-EGFR IC50, A431 cells [2]: > 2500 nM
B8 | – | – | – | Phospho-EGFR IC50, A431 cells [2]: 170 nM
B9 | – | – | – | Phospho-EGFR IC50, A431 cells [2]: 141 nM
B10 | 0.9 ratio | 0.87 ratio | 1.04 ratio | –
B11 | 1.04 ratio | 0.96 ratio | 1.05 ratio | –
B12 | 0.03 ratio | 0.03 ratio | 0 ratio | –
B13 | 1.02 ratio | 0.5 ratio | 0.9 ratio | –
B14 | – | – | – | Phospho-EGFR IC50, A431 cells [2]: 184 nM
B15 | 0.95 ratio | 0.83 ratio | 1.04 ratio | –
B16 | 0.09 ratio | 0 ratio | 0.01 ratio | –
B17 | 0.93 ratio | 0.94 ratio | 1.03 ratio | –
B18 | 0.11 ratio | 0 ratio | 0 ratio | –
B19 | 0.93 ratio | 0.93 ratio | 1 ratio | –
B20 | 0.93 ratio | 0.88 ratio | 1 ratio | –

Binder | binding ratio vs parent P54AR4-83v2 [3] | binding ratio vs parent P54AR4-83v2 [4] | binding ratio vs parent P54AR4-83v2 [5] | further results
B21 | 1.04 ratio | 0.97 ratio | 1.02 ratio | –
B22 | 0.93 ratio | 0.87 ratio | 1.06 ratio | –
B23 | 0.98 ratio | 0.96 ratio | 1.01 ratio | –
B24 | 0.95 ratio | 0.92 ratio | 0.99 ratio | –
B25 | 0.93 ratio | 0.83 ratio | 1.04 ratio | –
B26 | 0.9 ratio | 0.96 ratio | 1.03 ratio | –
B27 | 0.7 ratio | 0.38 ratio | 0.64 ratio | –
B28 | 0.9 ratio | 0.61 ratio | 1.01 ratio | –
B29 | 0.68 ratio | 0.31 ratio | 0.63 ratio | –
B30 | 0.95 ratio | 0.76 ratio | 1.01 ratio | –
B31 | 0.93 ratio | 0.78 ratio | 1.03 ratio | –
B32 | – | – | – | Phospho-EGFR IC50, A431 cells [2]: 18 nM
B33 | 0.93 ratio | 0.86 ratio | 1.01 ratio | –
B34 | – | – | – | Phospho-EGFR IC50, A431 cells [2]: 179 nM
B35 | – | – | – | EGF-stimulated EGFR phosphorylation in NCI-H292 cells IC50 [6]: 2.3 nM; HGF-stimulated c-Met phosphorylation in NCI-H292 cells IC50 [7]: 1.3 nM
B36 | – | – | – | EGF-stimulated EGFR phosphorylation in NCI-H292 cells IC50 [6]: 0.9 nM; HGF-stimulated c-Met phosphorylation in NCI-H292 cells IC50 [7]: 0.4 nM
B37 | – | – | – | EGF-stimulated EGFR phosphorylation in NCI-H292 cells IC50 [6]: 1.6 nM; HGF-stimulated c-Met phosphorylation in NCI-H292 cells IC50 [7]: 0.5 nM
B38 | – | – | – | EGF-stimulated EGFR phosphorylation in NCI-H292 cells IC50 [6]: 1.4 nM; HGF-stimulated c-Met phosphorylation in NCI-H292 cells IC50 [7]: 0.4 nM
B39 | – | – | – | EGF-stimulated EGFR phosphorylation in NCI-H292 cells IC50 [6]: 1.4 nM; HGF-stimulated c-Met phosphorylation in NCI-H292 cells IC50 [7]: 0.5 nM
